Target: human ILT3 (binding and competition assays, construct not stated) (human, UniProt Q8NHJ6 22-259)
Assay: binding to hILT3 (relative binding)

Binder	EC50
h5E5-42 (antibody, V domains shown) VH: QVQLVQSGAEVKKPGASVKVSCKASGYSFSGFYIDWVKQPPGKGLEWIGYIFPSNGETSYNQKFKGRVTMTVDKSTSTVYMELSSLRSEDTAVYYCARQAFYYFDYWGQGTTVTVSS VL: not shown	0.05 mg/L
h5E5-22 (antibody, V domains shown) VH: EVQLVQSGAEVKKPGASVKVSCKASGYSFTGFYIDWVKQPPGKGLEWIGYIFPSNGETSYNQKFKGRATMTVDKSTSTVYMELSSLRSEDTAVYYCARQAFYYFDYWGQGTTVTVSS VL: not shown	0.08 mg/L

Second part, the binder after the results:

EC50	Binder
0.08 mg/L	h5E5-84 (antibody, V domains shown) VH: EVQLVQSGAEVKKPGASVKVSCKASGYSFSGFYIDWVKQPPGKGLEWIGYIFPSNGETSYNQKFKGRATMTVDKSTSTVYMELSSLRSEDTAVYYCARQAFYYFDYWGQGTTVTVSS VL: not shown
0.09 mg/L	h5E5-73 (antibody, V domains shown) VH: QVQLVQSGAEVKKPGASVKVSCKASGYSFTGFYIDWVKQPPGKGLEWIGYIFPSNGETSYNQKFKGRVTMTVDKSTSTVYMELSSLRSEDTAVYYCARQAFYYFDSWGQGTTVTVSS VL: DIVMTQSPDSLAVSLGERATINCKSSQSLLSSSNQKNYLAWYQQKPGQAPRLLIYWASTRESGVPDRFAGSGSGTDFTLTISSLQAEDVAVYYCQQYYSYPLTFGQGTKLEIKR
0.1 mg/L	h5E5-83 (antibody, V domains shown) VH: EVQLVQSGAEVKKPGASVKVSCKASGYSFSGFYIDWVKQPPGKGLEWIGYIFPSNGETSYNQKFKGRATMTVDKSTSTVYMELSSLRSEDTAVYYCARQAFYYFDYWGQGTTVTVSS VL: DIVMTQSPDSLAVSLGERATINCKSSQSLLSSSNQKNYLAWYQQKPGQAPRLLIYWASTRESGVPDRFAGSGSGTDFTLTISSLQAEDVAVYYCQQYYSYPLTFGQGTKLEIKR
